These results are taken from paper PMC10123090, “The MksG nuclease is the executing part of the bacterial plasmid defense system MksBEFG” (Nucleic Acids Research, 2023).

One data set has as its target T1, MksBEF (Corynebacterium glutamicum, UniProt Q8NLY2).
T1 construct: gene Cgl2804; with Kleisin subunit MksF (MukF/JetA homologue); Kite subunit MksE (MukE/JetB homologue)
Briefly: EnzChek phosphate release. To be noted: 2 mM Mg-ATP, 30 °C, with or without 50 ng/ul plasmid DNA (pBHK18). Format: biochemical.

The target of data set [1] is MksB (His10-MksB), condensin-like ATPase subunit of the Corynebacterium glutamicum MksBEFG complex (Corynebacterium glutamicum) (UniProt Q8NLY2). In words: BLI; BLItz, streptavidin biosensors; biotinylated bait immobilised (MksE 25 ug/ml, MksB 50 ug/ml or MksG 100 ug/ml), MksF as analyte 1-5 uM; BLI buffer 10 mM Na2HPO4, 137 mM NaCl, 2.7 mM KCl, 1.8 mM KH2PO4, 10 mM MgCl2, 5% glycerol, pH 7.4; 1:1 binding model. Background: Biolayer interferometry detects binding as a change in optical thickness at a sensor tip.
Sequence of MksB (His10-MksB), condensin-like ATPase subunit of the Corynebacterium glutamicum MksBEFG complex (Corynebacterium glutamicum) (Q8NLY2 entry or part of it, one chain of several): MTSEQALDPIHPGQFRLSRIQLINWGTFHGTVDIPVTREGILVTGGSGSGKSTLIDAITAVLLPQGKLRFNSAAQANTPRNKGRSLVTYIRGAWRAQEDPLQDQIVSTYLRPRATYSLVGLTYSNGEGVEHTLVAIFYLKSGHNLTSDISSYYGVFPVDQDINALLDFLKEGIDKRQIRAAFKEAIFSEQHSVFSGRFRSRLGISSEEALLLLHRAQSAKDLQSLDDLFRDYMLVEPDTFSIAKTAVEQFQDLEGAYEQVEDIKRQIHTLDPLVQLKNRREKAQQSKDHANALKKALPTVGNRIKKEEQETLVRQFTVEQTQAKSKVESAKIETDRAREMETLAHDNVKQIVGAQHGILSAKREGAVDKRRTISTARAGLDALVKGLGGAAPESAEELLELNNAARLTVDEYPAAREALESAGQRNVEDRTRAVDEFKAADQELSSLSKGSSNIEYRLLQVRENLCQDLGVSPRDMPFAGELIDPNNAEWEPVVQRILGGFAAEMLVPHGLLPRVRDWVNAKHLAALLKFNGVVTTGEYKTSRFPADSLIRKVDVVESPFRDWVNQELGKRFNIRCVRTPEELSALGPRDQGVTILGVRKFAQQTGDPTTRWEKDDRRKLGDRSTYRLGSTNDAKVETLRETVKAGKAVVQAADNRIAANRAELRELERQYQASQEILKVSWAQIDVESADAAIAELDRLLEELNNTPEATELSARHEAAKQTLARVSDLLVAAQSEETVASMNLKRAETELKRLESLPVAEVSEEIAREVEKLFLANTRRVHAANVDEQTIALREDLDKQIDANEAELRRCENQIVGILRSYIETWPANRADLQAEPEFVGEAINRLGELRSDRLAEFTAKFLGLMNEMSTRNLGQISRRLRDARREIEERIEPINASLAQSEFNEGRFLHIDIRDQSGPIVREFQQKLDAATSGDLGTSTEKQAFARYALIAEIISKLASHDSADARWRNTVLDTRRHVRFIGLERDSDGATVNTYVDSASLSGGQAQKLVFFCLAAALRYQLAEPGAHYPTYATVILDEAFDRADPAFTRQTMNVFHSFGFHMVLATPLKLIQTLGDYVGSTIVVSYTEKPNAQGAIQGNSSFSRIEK

The target in data set [2] is MksE (His6-MksE), kite subunit of the Corynebacterium glutamicum MksBEFG complex (Corynebacterium glutamicum) (UniProt Q8NLY1). The description is as above.
Sequence of MksE (His6-MksE), kite subunit of the Corynebacterium glutamicum MksBEFG complex (Corynebacterium glutamicum) (Q8NLY1 entry or part of it, one chain of several): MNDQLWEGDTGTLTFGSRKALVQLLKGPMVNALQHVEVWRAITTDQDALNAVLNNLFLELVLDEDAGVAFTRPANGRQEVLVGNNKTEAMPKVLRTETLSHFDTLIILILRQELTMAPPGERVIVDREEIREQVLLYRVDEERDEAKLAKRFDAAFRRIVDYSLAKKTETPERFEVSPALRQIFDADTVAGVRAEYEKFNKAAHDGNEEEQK
Data set [3] concerns the molecule itself. In words: crystal structure; X-ray, 4.6 A, solved by molecular replacement with AlphaFold2 domain models; crystals in 10% PEG 6K, 30% ethanol, 10 mM sodium acetate.
For data set [4], the target named is T2, MksF (His6-MksF), kleisin subunit of the Corynebacterium glutamicum MksBEFG complex (Corynebacterium glutamicum, UniProt Q8NLY0 1-495).
T2 construct: MksF of Corynebacterium glutamicum, gene mksF (cg3106), amplified from genomic DNA and ligated NdeI/BamHI into pET28a (plasmid pMG001); Analyte in the BLI experiments with constants; biotinylated (EZ-Link NHS-PEG4, ratio 3:1) where used as bait; Also purified together with MksE; also called cg3106; source: E. coli BL21 (DE3) pLysS, purified (Ni-NTA, SEC)
T2 sequence (looked up): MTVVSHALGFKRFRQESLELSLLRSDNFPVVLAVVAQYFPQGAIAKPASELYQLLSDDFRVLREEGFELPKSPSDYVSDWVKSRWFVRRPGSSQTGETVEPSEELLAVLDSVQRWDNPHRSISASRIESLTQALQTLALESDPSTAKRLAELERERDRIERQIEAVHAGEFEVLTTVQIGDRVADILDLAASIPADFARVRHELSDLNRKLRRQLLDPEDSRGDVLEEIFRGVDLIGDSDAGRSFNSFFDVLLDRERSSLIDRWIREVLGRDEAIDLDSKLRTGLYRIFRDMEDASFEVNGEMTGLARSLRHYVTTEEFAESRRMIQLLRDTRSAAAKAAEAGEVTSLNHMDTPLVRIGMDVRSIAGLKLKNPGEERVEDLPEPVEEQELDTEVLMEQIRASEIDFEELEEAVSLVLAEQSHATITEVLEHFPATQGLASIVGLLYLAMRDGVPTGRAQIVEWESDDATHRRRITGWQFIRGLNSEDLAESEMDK
Briefly: BLI; BLItz, streptavidin biosensors; biotinylated bait immobilised (MksE 25 ug/ml, MksB 50 ug/ml or MksG 100 ug/ml), MksF as analyte 1-5 uM; BLI buffer 10 mM Na2HPO4, 137 mM NaCl, 2.7 mM KCl, 1.8 mM KH2PO4, 10 mM MgCl2, 5% glycerol, pH 7.4; 1:1 binding model. The note with it: both partners purified.

In general, Kd refers to a measure of binding affinity in units of concentration. As usually defined, the koff is the rate constant with which the complex falls apart. Low readings indicate slow dissociation, high ones fast dissociation. What is called kon is the second-order rate constant of association. The low end stands for slow association, the high end for fast association. As a reminder, the stoichiometry N is the number of molecules, sites or subunits per partner or assembly.

T1 sequence (Q8NLY2 entry or part of it, one chain of several): as the sequence (Q8NLY2 entry or part of it, one chain of several) above
T1 sequence (Q8NLY1 entry or part of it, one chain of several, further chain): as the sequence (Q8NLY1 entry or part of it, one chain of several) above

Turning to `Nc1ncnc2c1ncn2[C@@H]1O[C@H](COP(=O)(O)OP(=O)(O)OP(=O)(O)O)[C@@H](O)[C@H]1O` [ATP], at MksBEF, the EnzChek phosphate release result is “kleisin subunit MksF and the kite subunit MksE stimulated the ATPase activity of MksB”.
Consider “MksF (His6-MksF), kleisin subunit of the Corynebacterium glutamicum MksBEFG complex (from UniProt Q8NLY0 1-495) (natural protein)”, for which, in data set [1], the equilibrium dissociation constant (Kd) worked out at 4.94 µM, the koff was found to be 0.138 s⁻¹ and the on-rate constant (kon) came out at 27800 M⁻¹ s⁻¹. Besides, in data set [2], the Kd is 2.17 µM, the dissociation rate constant (koff) was found to be 0.16 s⁻¹ and the kon was 74200 M⁻¹ s⁻¹.

B1: MksG, 6xHis-SUMO-tagged construct for crystallization (enzyme, Corynebacterium glutamicum)
chain: MPLFIDDALHRSKKYFHAHLSELLLGEFAGLSLPLHPPTAAKAAADIDATREFIRQWEGRDDVEYAIRNWSPVGLGKTEVPVRLTLNTTEELVVFAQVEDEWSSLHERFSQLSGFTAEVVAKHVSLWRSLSNDDLSKAVLVVDWFLKHPNSGLLKRAVAVEGVHTKWLENHRVLIETLVADKRGEPGRADLGLGDAEARVRLRFHSVDAPAGLTDIEVPLSNLCELQEPQVILMVENLDSFLALPTWPGVTIAWGAGYRAVDIVRGPYFSNGRLLYWGDLDLDGFKILDGVRSHVPHTESVLMNSETVSRWRYLGVADREFKAESFDNLHDFESDALDLLITDGELRIEQERIRLDVAVEEIEKVIRG
notes: MksG of Corynebacterium glutamicum (cg3103), amplified from pMG003 and subcloned into a pET28 derivative with an N-terminal 6xHis-SUMO tag; The methods tell of no cleavage of the 6xHis-SUMO tag before crystallization; also called 6xHis-SUMO-MksG; source: E. coli BL21 C41, purified (Ni-NTA, SEC)
Consider B1, for which the “stoichiometry N” value in data set [3] came out at 2.

B2: MksG (His6-MksG), nuclease subunit of the Corynebacterium glutamicum MksBEFG complex (enzyme)
chain: B1 chain
notes: MksG of Corynebacterium glutamicum, gene mksG (cg3103), amplified from genomic DNA and ligated NdeI/BamHI into pET28a (plasmid pMG003); Biotinylated (EZ-Link NHS-PEG4, ratio 3:1) where used as bait in BLI; The methods speak of 'dimeric MksG'; also called cg3103; source: E. coli BL21 (DE3) pLysS, purified (Ni-NTA, SEC)
In the case of B2, in data set [4], the Kd was determined as 6 µM, the koff amounted to 0.136 s⁻¹ and the kon is 22500 M⁻¹ s⁻¹.
